Test system: Escherichia coli TOP10
Test: shrunken log2 fold change of peptide-encoding DNA abundance (4.5 h post-induction vs induction); higher = less antimicrobial activity (less host growth inhibition)
Details: time post-induction: 4.5 h; library: site-saturation at positions 5, 18, 19, 20
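Further: peptides expressed intracellularly from a pBAD plasmid library in pooled LB shake-flask culture, induced with 0.3% L-arabinose, DNA abundance read by NGS, three biological replicates, DESeq2 with apeglm shrinkage.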

Sequence	shrunken log2 fold change
RRIRRRPPRLPRPRPRPPYWPRP	0.625
RRIRPRPPRLPRPRPRPSGWPRP	0.57
RRIRYRPPRLPRPRPRPCQVPRP	-0.116
RRIRMRPPRLPRPRPRPYTMPRP	-0.06
RRIRHRPPRLPRPRPRPGNDPRP	-0.583
RRIRPRPPRLPRPRPRPKWNPRP	-0.0477
RRIRMRPPRLPRPRPRPMFLPRP	-0.273
RRIRKRPPRLPRPRPRPQMVPRP	-0.0031
RRIRPRPPRLPRPRPRPINCPRP	-0.126
RRIRWRPPRLPRPRPRPCWYPRP	-0.277
RRIRCRPPRLPRPRPRPWGHPRP	-0.092
RRIRHRPPRLPRPRPRPCRPPRP	0.0355
RRIRCRPPRLPRPRPRPNTSPRP	-0.343
RRIRKRPPRLPRPRPRPQNGPRP	-0.178
RRIRIRPPRLPRPRPRPSPFPRP	-0.81
RRIRRRPPRLPRPRPRPECEPRP	0.323
RRIRARPPRLPRPRPRPQFQPRP	0.0187
RRIRGRPPRLPRPRPRPWGLPRP	0.0474
RRIRSRPPRLPRPRPRPMTQPRP	-0.116
RRIRTRPPRLPRPRPRPMKSPRP	-0.203
RRIRSRPPRLPRPRPRPKWEPRP	0.274
RRIRKRPPRLPRPRPRPCKFPRP	0.142
RRIRPRPPRLPRPRPRPWVYPRP	-0.227
RRIRIRPPRLPRPRPRPPTNPRP	0.0455
RRIRPRPPRLPRPRPRPLYIPRP	-0.227

Sequence	shrunken log2 fold change
RRIRARPPRLPRPRPRPVNDPRP	0.584
RRIRIRPPRLPRPRPRPDMQPRP	-0.0983
RRIRCRPPRLPRPRPRPTEWPRP	0.063
RRIRRRPPRLPRPRPRPICKPRP	0.0422
RRIRYRPPRLPRPRPRPNQQPRP	-0.0105
RRIRERPPRLPRPRPRPNAMPRP	0.0107
RRIRIRPPRLPRPRPRPLTLPRP	-0.22
RRIRGRPPRLPRPRPRPVGYPRP	0.295
RRIRHRPPRLPRPRPRPTHQPRP	0.243
RRIRIRPPRLPRPRPRPMGWPRP	0.237
RRIRSRPPRLPRPRPRPCHSPRP	0.00316
RRIRHRPPRLPRPRPRPLGHPRP	-0.499
RRIRPRPPRLPRPRPRPMFHPRP	-0.289
RRIRVRPPRLPRPRPRPQNAPRP	0.00238
RRIRVRPPRLPRPRPRPQHPPRP	-0.0951
RRIRLRPPRLPRPRPRPTITPRP	-0.0781
RRIRRRPPRLPRPRPRPSKCPRP	-0.47
RRIRNRPPRLPRPRPRPNRSPRP	-0.165
RRIRTRPPRLPRPRPRPVADPRP	0.0403
RRIRDRPPRLPRPRPRPTDSPRP	-0.0622
RRIRDRPPRLPRPRPRPLTFPRP	-0.212
RRIRLRPPRLPRPRPRPDATPRP	0.398
RRIRKRPPRLPRPRPRPMNDPRP	0.188
RRIRARPPRLPRPRPRPHINPRP	-0.325
RRIRLRPPRLPRPRPRPFRSPRP	-0.0185

Sequence	shrunken log2 fold change
RRIRMRPPRLPRPRPRPGYCPRP	0.0615
RRIRARPPRLPRPRPRPVDAPRP	1.28
RRIRQRPPRLPRPRPRPGYNPRP	-0.185
RRIRDRPPRLPRPRPRPQFNPRP	-0.195
RRIRRRPPRLPRPRPRPNFDPRP	-0.102
RRIRYRPPRLPRPRPRPLIEPRP	-0.442
RRIRARPPRLPRPRPRPPHIPRP	0.455
RRIRMRPPRLPRPRPRPFEHPRP	-0.327
RRIRGRPPRLPRPRPRPSEFPRP	0.122
RRIRMRPPRLPRPRPRPSECPRP	0.0809
RRIRLRPPRLPRPRPRPQNEPRP	-0.459
RRIRIRPPRLPRPRPRPLYLPRP	-1.08
RRIRSRPPRLPRPRPRPMKAPRP	-0.00133
RRIRGRPPRLPRPRPRPYFDPRP	-0.00956
RRIRSRPPRLPRPRPRPWDYPRP	0.0318
RRIRMRPPRLPRPRPRPMPPPRP	1.07
RRIRKRPPRLPRPRPRPYPKPRP	0.109
RRIRTRPPRLPRPRPRPWCSPRP	-0.799
RRIRHRPPRLPRPRPRPQFDPRP	0.0132
RRIRCRPPRLPRPRPRPSLTPRP	-0.538
RRIRIRPPRLPRPRPRPAGGPRP	0.3
RRIRHRPPRLPRPRPRPCLCPRP	-0.268
RRIRVRPPRLPRPRPRPQFQPRP	-0.0795
RRIRRRPPRLPRPRPRPPNVPRP	0.115
RRIRTRPPRLPRPRPRPQRGPRP	0.31

Sequence	shrunken log2 fold change
RRIRSRPPRLPRPRPRPTAHPRP	0.284
RRIRFRPPRLPRPRPRPCLMPRP	-0.379
RRIRMRPPRLPRPRPRPEDAPRP	3.45
RRIRIRPPRLPRPRPRPEHCPRP	0.0755
RRIRHRPPRLPRPRPRPDGMPRP	-0.444
RRIRDRPPRLPRPRPRPDHHPRP	-0.616
RRIRQRPPRLPRPRPRPNLDPRP	0.0163
RRIRTRPPRLPRPRPRPGYVPRP	-0.526
RRIRPRPPRLPRPRPRPRCIPRP	-0.2
RRIRGRPPRLPRPRPRPAPLPRP	0.893
RRIRERPPRLPRPRPRPKTNPRP	-0.293
RRIRYRPPRLPRPRPRPVKLPRP	0.0698
RRIRRRPPRLPRPRPRPPMFPRP	0.26
RRIRFRPPRLPRPRPRPYHWPRP	-0.208
RRIRRRPPRLPRPRPRPTIQPRP	0.144
RRIRSRPPRLPRPRPRPYICPRP	-0.959
RRIRKRPPRLPRPRPRPELQPRP	0.307
RRIRQRPPRLPRPRPRPYVNPRP	-0.00544
RRIRARPPRLPRPRPRPKSRPRP	0.474
RRIRHRPPRLPRPRPRPKNDPRP	-0.268
RRIRIRPPRLPRPRPRPEYHPRP	-0.152
RRIRDRPPRLPRPRPRPTCNPRP	0.13
RRIRKRPPRLPRPRPRPICAPRP	0.363
RRIRSRPPRLPRPRPRPESHPRP	-0.44
RRIRQRPPRLPRPRPRPWCHPRP	-0.169

Sequence	shrunken log2 fold change
RRIRQRPPRLPRPRPRPLEKPRP	-0.0015
RRIRWRPPRLPRPRPRPKIDPRP	0.0747
RRIRNRPPRLPRPRPRPLSFPRP	-0.387
RRIRDRPPRLPRPRPRPETDPRP	0.0208
RRIRLRPPRLPRPRPRPQTFPRP	-0.118
RRIRSRPPRLPRPRPRPFHVPRP	-0.108
RRIRCRPPRLPRPRPRPDDCPRP	0.112
RRIRMRPPRLPRPRPRPLPLPRP	0.718
RRIRVRPPRLPRPRPRPEMPPRP	0.0341
RRIRLRPPRLPRPRPRPDHTPRP	-0.0215
RRIRFRPPRLPRPRPRPAKNPRP	-0.0212
RRIRVRPPRLPRPRPRPVAFPRP	-0.0455
RRIRRRPPRLPRPRPRPDIYPRP	0.0543
RRIRYRPPRLPRPRPRPRSFPRP	-0.0868
RRIRLRPPRLPRPRPRPDLKPRP	-0.0789
RRIRMRPPRLPRPRPRPYRGPRP	0.148
RRIRARPPRLPRPRPRPPARPRP	0.874
RRIRSRPPRLPRPRPRPHWPPRP	0.341
RRIRHRPPRLPRPRPRPPRSPRP	0.704
RRIRKRPPRLPRPRPRPKGKPRP	0.302
RRIRRRPPRLPRPRPRPPFGPRP	0.453
RRIRLRPPRLPRPRPRPMGLPRP	0.0182
RRIRHRPPRLPRPRPRPNQEPRP	-0.00942
RRIRKRPPRLPRPRPRPHAWPRP	0.897
RRIRKRPPRLPRPRPRPPRNPRP	0.671

Sequence	shrunken log2 fold change
RRIRKRPPRLPRPRPRPQNMPRP	-0.521
RRIRQRPPRLPRPRPRPQAHPRP	-0.23
RRIRQRPPRLPRPRPRPTAEPRP	0.363
RRIRIRPPRLPRPRPRPVKFPRP	-0.0946
RRIRKRPPRLPRPRPRPQCMPRP	0.0247
RRIRNRPPRLPRPRPRPGRYPRP	0.00112
RRIRTRPPRLPRPRPRPTRAPRP	0.687
RRIRRRPPRLPRPRPRPLCLPRP	0.0544
RRIRNRPPRLPRPRPRPGIIPRP	-0.00401
RRIRPRPPRLPRPRPRPCNRPRP	-0.148
RRIRHRPPRLPRPRPRPVWHPRP	0.0453
RRIRLRPPRLPRPRPRPATQPRP	0.00742
RRIRQRPPRLPRPRPRPPIPPRP	-0.0174
RRIRQRPPRLPRPRPRPMATPRP	0.0329
RRIRTRPPRLPRPRPRPKMGPRP	-0.0141
RRIRRRPPRLPRPRPRPLQKPRP	0.44
RRIRSRPPRLPRPRPRPALLPRP	0.42
RRIRGRPPRLPRPRPRPFNMPRP	-1.07
RRIRSRPPRLPRPRPRPETIPRP	0.148
RRIRHRPPRLPRPRPRPCAYPRP	-0.0102
RRIRMRPPRLPRPRPRPLNPPRP	0.0743
RRIRERPPRLPRPRPRPNKNPRP	0.0755
RRIRYRPPRLPRPRPRPFEDPRP	-0.057
RRIRRRPPRLPRPRPRPRPKPRP	1.05
RRIRERPPRLPRPRPRPINEPRP	-0.281
